Consider 3 compounds from patent US20240207463A1, “RADIOACTIVE COMPLEX OF ANTI-EGFR ANTIBODY, AND RADIOPHARMACEUTICAL” (NIHON MEDI-PHYSICS CO., LTD., priority 2021, published 2024).

Data set [1] relates to COLO205 cells, HCT-116 cells, SW48 cells, MIAPaCa-2 cells, NCI-H358 cells. Description: Cytotoxic effect on cultured cells, overall statement. The data set is classed as cell-based, human. The conditions noted are these: 120 hours; up to maximum concentration added (antibody concentration 156 nM). As for the experimental part: In addition, unlabeled panitumumab was added to an antibody concentration the same as that of the sample at each radioactivity concentration, and the cells were cultured. After 120 hours from the sample addition, CellTiter-Glo (registered trademark) 2.0 Cell Viability Assay (manufactured by Promega) was added to the medium, chemiluminescence was detected using a microplate reader (SpectraMax i3x, manufactured by Molecular Devices, LLC), and the number of viable cells was calculated. The ratio of the number of viable cells under conditions where no antibody was added to the calculated number of viable cells was taken, and the cytotoxic effect was evaluated. Furthermore, the obtained results were fitted by a […] regression method using GraphPad Prism 7 (manufactured by GraphPad Software), and EC50 was calculated.

Data set [2] has as its system SW48 cells and COLO205 cells. Description: Apoptosis induction, Caspase-Glo 3/7 Assay. It is filed as cell-based, human. The conditions noted are these: 72 hours, both cells. As for the experimental part: In addition, unlabeled panitumumab was added to an antibody concentration the same as that of the group at each radioactivity concentration, and the cells were cultured. After 72 hours from the sample addition, an apoptosis assay kit (Caspase-Glo (registered trademark) 3/7 Assay, manufactured by Promega) was added, and Caspase-3/7 activity was detected using a microplate reader.

A short description of data set [3]: Hepatotoxicity and nephrotoxicity markers (AST, ALT, BUN) in COLO205 tumor-bearing mice. The settings on record: final day of observation. The procedure:
As a comparison group, a group (oxaliplatin administration group) was set by administering 33 μL of oxaliplatin into the tail vein at a dose of 5 mg/mL 3 times every other week. […] Each group contained 6 mice, and observation of general condition and measurement of the body weight and tumor volume were performed until the end of the observation period. In the Figure, the vertical axis indicates mean tumor volume of each group, and the horizontal axis indicates the number of days elapsed since administration of each medicament. […] On the final day of observation, the mice were autopsied, and the blood was collected. The collected blood was analyzed by a dry chemistry analyzer (SPOTCHEM D-02, manufactured by ARKRAY, Inc.) by measuring aspartate aminotransferase (AST), alanine aminotransferase (ALT), and blood urea nitrogen (BUN) in plasma by using SPOTCHEM D Total-A2 (manufactured by ARKRAY, Inc.), and hepatotoxicity and nephrotoxicity were evaluated.

The test system of data set [4] is tumor derived from COLO205 cells. The data set can be described thus: Accumulation in tumor, PET imaging in COLO205 tumor-bearing mice. It is filed as in vivo, mouse. As for the experimental part:
COLO205 cells of EGFR high expression human colorectal cancer-derived cell line purchased from ATCC were suspended in DMEM medium and administered subcutaneously to the flanks of 5-week-old female BALB/c nu/nu (Charles River Laboratories Japan, Inc.) at 5×10^6 cells to prepare tumor-bearing mice. The tumor volume was allowed to grow to about 100 to 250 mm^3, and the radioconjugate produced as described in Example 7 was administered at a dose of about 6 MBq/mouse (each n=3) into the tail vein. After 72 hr and 120 hr from the administration, images were taken using a small animal PET imaging device under conditions similar to those in Evaluation 2.
The arrow in the image indicates a tumor derived from COLO205 cells used for tumor-bearing. When VOI was set for the tumor and muscle (femoral muscle) in each imaged mouse and the SUV (Standard Uptake Value) was calculated, the value was 3.18±0.72 for tumor and 0.48±0.02 for muscle at 72 hr after administration and 4.38±0.96 for tumor and 0.48±0.05 for muscle at 120 hr after administration. Using the values, the radioactivity accumulation ratio of tumor to muscle was calculated. As a result, the ratio was 6.67±1.52 at 72 hr after administration and 9.19±2.02 at 120 hr after administration, and a higher level of radioactivity was accumulated in the tumor as compared with other organs and EGFR positive tumor could be depicted.

On to “panitumumab [unlabeled panitumumab, reference compound]”, for which the cytotoxic effect result in data set [1] was “no cytotoxic effect was confirmed”. Further, in data set [2], the “apoptosis induction (Caspase-3/7 activity)” value is listed as “apoptosis induction was not confirmed”.
For the compound `O=C1[O][Pt]2([NH][C@@H]3CCCC[C@H]3[NH]2)[O]C1=O` [oxaliplatin, reference compound], the “hepatotoxicity and nephrotoxicity (AST, ALT, BUN in plasma)” value in data set [3] is recorded as “no hepatotoxicity or nephrotoxicity was confirmed”.
Turning to “Example 7: Complex with panitumumab using 89Zr-labeled DOTAGA-DBCO”, the entries for the “SUV (Standard Uptake Value), muscle (femoral muscle)” value in data set [4] (72 hr after administration) and in data set [4] (120 hr after administration) were 0.48±0.02 and 0.48±0.05, respectively. Besides, the “SUV (Standard Uptake Value), tumor” value in data set [4] (120 hr after administration) is 4.38±0.96; in data set [4] (about 6 MBq/mouse tail vein, 72 hr after administration), 3.18±0.72.
